From the supplement of paper PMC9112550, “Optimization of the antimicrobial peptide Bac7 by deep mutational scanning” (BMC Biology, 2022) come the findings set out here.

This series relates to Escherichia coli TOP10. Put plainly: shrunken log2 fold change of peptide-encoding DNA abundance (4.5 h post-induction vs induction); higher = less antimicrobial activity (less host growth inhibition). As to conditions: time post-induction: 4.5 h; library: site-saturation at positions 5, 18, 19, 20.
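Also: peptides expressed intracellularly from a pBAD plasmid library in pooled LB shake-flask culture, induced with 0.3% L-arabinose, DNA abundance read by NGS, three biological replicates, DESeq2 with apeglm shrinkage.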

As to RRIRYRPPRLPRPRPRPDPMPRP, the “shrunken log2 fold change” value is -0.0159. As to RRIRIRPPRLPRPRPRPNIEPRP, the “shrunken log2 fold change” value was -0.0607. With RRIRSRPPRLPRPRPRPQFYPRP, the “shrunken log2 fold change” value is -0.769. As to RRIRHRPPRLPRPRPRPDWIPRP, the “shrunken log2 fold change” value is -0.111. Take RRIRSRPPRLPRPRPRPQEQPRP: the “shrunken log2 fold change” value is 0.0984. As for RRIRLRPPRLPRPRPRPGDRPRP, the “shrunken log2 fold change” value is -0.0244. With RRIRRRPPRLPRPRPRPQESPRP the figure was -0.131. With RRIRNRPPRLPRPRPRPGCPPRP the figure was -0.055; with RRIRGRPPRLPRPRPRPDWMPRP, 0.235; with RRIRRRPPRLPRPRPRPYTHPRP, -0.505. As to RRIRVRPPRLPRPRPRPCTCPRP, the “shrunken log2 fold change” value was -0.00748. On to RRIRHRPPRLPRPRPRPHKTPRP, for which the “shrunken log2 fold change” value turned out to be 0.00711. On to RRIRYRPPRLPRPRPRPYLWPRP, for which the “shrunken log2 fold change” value is -0.777. Consider RRIRARPPRLPRPRPRPAGWPRP, for which the “shrunken log2 fold change” value came to 1.56. With RRIRDRPPRLPRPRPRPGDRPRP the figure was -0.00192.

Consider RRIRRRPPRLPRPRPRPTPHPRP, for which the “shrunken log2 fold change” value is 0.884. For RRIRQRPPRLPRPRPRPTTRPRP, the “shrunken log2 fold change” value came out at 0.215.

In the case of RRIRKRPPRLPRPRPRPYHNPRP, the “shrunken log2 fold change” value was -0.227. For the sequence RRIRIRPPRLPRPRPRPYNLPRP, the “shrunken log2 fold change” value is -0.391. With RRIRTRPPRLPRPRPRPGYYPRP the figure was -0.442; with RRIRKRPPRLPRPRPRPSYIPRP, -0.136; with RRIRPRPPRLPRPRPRPMCKPRP, -0.274. On to RRIRMRPPRLPRPRPRPQFKPRP, for which the “shrunken log2 fold change” value is -0.138. With RRIRMRPPRLPRPRPRPPFTPRP the figure was 0.309; with RRIRKRPPRLPRPRPRPVIDPRP, 1.29; with RRIRNRPPRLPRPRPRPEATPRP, 0.556. RRIRPRPPRLPRPRPRPSWTPRP: the “shrunken log2 fold change” value is -0.326. RRIRKRPPRLPRPRPRPYSGPRP: the “shrunken log2 fold change” value was -0.839. Regarding RRIRRRPPRLPRPRPRPPQVPRP, the “shrunken log2 fold change” value is 1.33. As for RRIRFRPPRLPRPRPRPSPAPRP, the “shrunken log2 fold change” value worked out at 0.176.

Regarding RRIRDRPPRLPRPRPRPEHRPRP, the “shrunken log2 fold change” value was -0.01. With RRIRPRPPRLPRPRPRPLVNPRP the figure was -0.549; with RRIRSRPPRLPRPRPRPKIDPRP, -0.000854; with RRIRCRPPRLPRPRPRPVAIPRP, -0.156. Regarding RRIRNRPPRLPRPRPRPDKMPRP, the “shrunken log2 fold change” value worked out at 0.0206. As for RRIRTRPPRLPRPRPRPPEMPRP, the “shrunken log2 fold change” value is 0.237. As for RRIRHRPPRLPRPRPRPPTVPRP, the “shrunken log2 fold change” value was 0.184. With RRIRHRPPRLPRPRPRPTEAPRP the figure was -0.00626; with RRIRTRPPRLPRPRPRPVHWPRP, 0.842; with RRIRCRPPRLPRPRPRPHGWPRP, 0.267. Take RRIRKRPPRLPRPRPRPCWFPRP: the “shrunken log2 fold change” value is -0.0655. For the sequence RRIRTRPPRLPRPRPRPVQGPRP, the “shrunken log2 fold change” value is 0.165. For RRIRDRPPRLPRPRPRPECFPRP, the “shrunken log2 fold change” value amounted to 1.46. With RRIRQRPPRLPRPRPRPMYVPRP the figure was -0.0439. In the case of RRIRLRPPRLPRPRPRPRQSPRP, the “shrunken log2 fold change” value is -0.0892. As to RRIRCRPPRLPRPRPRPCPNPRP, the “shrunken log2 fold change” value was -0.14.

On to RRIRMRPPRLPRPRPRPPCWPRP, for which the “shrunken log2 fold change” value is 0.162. Turning to RRIRIRPPRLPRPRPRPLMEPRP, the “shrunken log2 fold change” value was -0.278. In the case of RRIRHRPPRLPRPRPRPYSSPRP, the “shrunken log2 fold change” value is -0.0579.

Take RRIRHRPPRLPRPRPRPVAAPRP: the “shrunken log2 fold change” value is 0.202. Regarding RRIRFRPPRLPRPRPRPMPFPRP, the “shrunken log2 fold change” value was -0.0201. With RRIRHRPPRLPRPRPRPDWMPRP the figure was -0.222; with RRIRPRPPRLPRPRPRPRRDPRP, 0.302.

Regarding RRIRGRPPRLPRPRPRPQMMPRP, the “shrunken log2 fold change” value was 0.112. As for RRIRKRPPRLPRPRPRPFGNPRP, the “shrunken log2 fold change” value was -0.171. For RRIRIRPPRLPRPRPRPADKPRP, the “shrunken log2 fold change” value is -0.194. RRIRERPPRLPRPRPRPFPQPRP: the “shrunken log2 fold change” value is 2.37.

For the sequence RRIRWRPPRLPRPRPRPIYSPRP, the “shrunken log2 fold change” value was -0.0292. Consider RRIRDRPPRLPRPRPRPKSLPRP, for which the “shrunken log2 fold change” value came to 0.196. With RRIRKRPPRLPRPRPRPPQQPRP, the “shrunken log2 fold change” value was 0.346. As to RRIRGRPPRLPRPRPRPTIDPRP, the “shrunken log2 fold change” value amounted to 0.214. With RRIRLRPPRLPRPRPRPSMKPRP the figure was -0.252; with RRIRARPPRLPRPRPRPRVCPRP, 0.0904; with RRIRPRPPRLPRPRPRPSALPRP, -0.00612. RRIRQRPPRLPRPRPRPCQEPRP: the “shrunken log2 fold change” value was -0.015. Take RRIRRRPPRLPRPRPRPFKCPRP: the “shrunken log2 fold change” value is -0.135. On to RRIRVRPPRLPRPRPRPFTPPRP, for which the “shrunken log2 fold change” value is -0.412. As to RRIRARPPRLPRPRPRPGQLPRP, the “shrunken log2 fold change” value is 0.359. As to RRIRVRPPRLPRPRPRPHKSPRP, the “shrunken log2 fold change” value stood at 0.0325. Take RRIRFRPPRLPRPRPRPGAHPRP: the “shrunken log2 fold change” value is -0.126. As to RRIRNRPPRLPRPRPRPHDEPRP, the “shrunken log2 fold change” value is -0.103.

Regarding RRIRLRPPRLPRPRPRPRESPRP, the “shrunken log2 fold change” value stood at 0.787. As for RRIRWRPPRLPRPRPRPSWFPRP, the “shrunken log2 fold change” value was -0.0343. For the sequence RRIRGRPPRLPRPRPRPFAEPRP, the “shrunken log2 fold change” value was found to be 2.46.

For RRIRPRPPRLPRPRPRPIDHPRP, the “shrunken log2 fold change” value came out at 0.0529. For RRIRYRPPRLPRPRPRPVDFPRP, the “shrunken log2 fold change” value is -0.226. For RRIRCRPPRLPRPRPRPYCIPRP, the “shrunken log2 fold change” value was -0.565. With RRIRHRPPRLPRPRPRPNKEPRP the figure was 0.000399; with RRIRVRPPRLPRPRPRPSCKPRP, -0.207; with RRIRMRPPRLPRPRPRPSLCPRP, 0.694.

With RRIRNRPPRLPRPRPRPSKFPRP, the “shrunken log2 fold change” value is -0.601. With RRIRVRPPRLPRPRPRPQDVPRP the figure was -0.033; with RRIRSRPPRLPRPRPRPDKFPRP, -0.143.

As for RRIRGRPPRLPRPRPRPHNFPRP, the “shrunken log2 fold change” value was 0.0511.

For RRIRKRPPRLPRPRPRPDFRPRP, the “shrunken log2 fold change” value was 0.134. As for RRIRCRPPRLPRPRPRPAKCPRP, the “shrunken log2 fold change” value is -0.101. Take RRIRQRPPRLPRPRPRPADSPRP: the “shrunken log2 fold change” value is -0.00947. With RRIRSRPPRLPRPRPRPVIDPRP the figure was -0.26; with RRIRFRPPRLPRPRPRPSQHPRP, -0.612.

Turning to RRIRDRPPRLPRPRPRPIMEPRP, the “shrunken log2 fold change” value stood at 0.594. For RRIRIRPPRLPRPRPRPQRKPRP, the “shrunken log2 fold change” value was -0.104. With RRIRQRPPRLPRPRPRPQWLPRP the figure was 0.0957. RRIRERPPRLPRPRPRPSHFPRP: the “shrunken log2 fold change” value came out at 0.000406. In the case of RRIRKRPPRLPRPRPRPPFCPRP, the “shrunken log2 fold change” value is -0.0397. Regarding RRIRMRPPRLPRPRPRPWYMPRP, the “shrunken log2 fold change” value is -0.147. Turning to RRIRIRPPRLPRPRPRPCTMPRP, the “shrunken log2 fold change” value was -0.0242. With RRIRGRPPRLPRPRPRPGLVPRP, the “shrunken log2 fold change” value is 0.848. For RRIRYRPPRLPRPRPRPALSPRP, the “shrunken log2 fold change” value is -0.0367. Take RRIRMRPPRLPRPRPRPYVVPRP: the “shrunken log2 fold change” value stood at 0.00957. With RRIRARPPRLPRPRPRPLSEPRP the figure was 0.172. Consider RRIRERPPRLPRPRPRPWPEPRP, for which the “shrunken log2 fold change” value was -0.0215. For the sequence RRIRQRPPRLPRPRPRPATDPRP, the “shrunken log2 fold change” value was -0.0316. With RRIRKRPPRLPRPRPRPMNSPRP the figure was -0.0163; with RRIRERPPRLPRPRPRPRTAPRP, 0.131. On to RRIRKRPPRLPRPRPRPNWSPRP, for which the “shrunken log2 fold change” value turned out to be 0.139. In the case of RRIRVRPPRLPRPRPRPKTNPRP, the “shrunken log2 fold change” value was -0.117. As to RRIRNRPPRLPRPRPRPDPTPRP, the “shrunken log2 fold change” value is 0.0817. Take RRIRIRPPRLPRPRPRPYQCPRP: the “shrunken log2 fold change” value was -0.349. With RRIRCRPPRLPRPRPRPEVHPRP the figure was -0.328; with RRIRPRPPRLPRPRPRPNVCPRP, -0.169; with RRIRNRPPRLPRPRPRPRPNPRP, 0.135. RRIRVRPPRLPRPRPRPEKSPRP: the “shrunken log2 fold change” value is 0.0304. Turning to RRIRERPPRLPRPRPRPDTDPRP, the “shrunken log2 fold change” value turned out to be 0.0402.

For RRIRCRPPRLPRPRPRPIKEPRP, the “shrunken log2 fold change” value was -0.0741. For the sequence RRIRVRPPRLPRPRPRPWAMPRP, the “shrunken log2 fold change” value is -0.0382.

On to RRIRHRPPRLPRPRPRPDNPPRP, for which the “shrunken log2 fold change” value is -0.0868. For the sequence RRIRGRPPRLPRPRPRPPIMPRP, the “shrunken log2 fold change” value came out at 0.375.

With RRIRCRPPRLPRPRPRPNWIPRP, the “shrunken log2 fold change” value is -0.419. For RRIRCRPPRLPRPRPRPNAIPRP, the “shrunken log2 fold change” value came to 0.0905.

In the case of RRIRMRPPRLPRPRPRPIGNPRP, the “shrunken log2 fold change” value was determined as 0.13. Take RRIRLRPPRLPRPRPRPNCQPRP: the “shrunken log2 fold change” value was 0.0269. RRIRGRPPRLPRPRPRPFHLPRP: the “shrunken log2 fold change” value is -0.391.

RRIRVRPPRLPRPRPRPSDNPRP: the “shrunken log2 fold change” value is -0.878.

In the case of RRIRMRPPRLPRPRPRPSVVPRP, the “shrunken log2 fold change” value stood at 0.124. Take RRIRNRPPRLPRPRPRPAILPRP: the “shrunken log2 fold change” value is -0.101.
